Peptide text beside a SMILES is read from it. * marks the point of attachment. Doxorubicin(3'-N) = COc1cccc2c1C(=O)c1c(O)c3c(c(O)c1C2=O)C[C@@](O)(C(=O)CO)C[C@@H]3O[C@H]1C[C@H](N*)[C@H](O)[C@H](C)O1
Key:
[1] = Biodistribution after oral administration, NIRF imaging of GI tract; design: species or system BALB/c mice; details: mouse
Experimental: All animal experiments were performed following the International Guide for the Care and Use of Laboratory Animals and were approved by the Korea Institute of Science and Technology. 7-week-old BALB/c mice (n = 3 per each time point) were used to monitor the in vivo biodistribution of mEVs. […] Fluorescence signals in the GI tract were monitored by NIRF imaging. Following the assessment of GI tract distribution, all mice were anesthetized using 2.5% isoflurane gas and dissected to extract their major organs (liver, lung, spleen, heart, and kidney) along with the GI tract, and blood for PK analysis. PK analysis was performed by measuring the fluorescence signal of FDX and mEVs present in the blood at each time point (20 min, 40 min, 1 h, 3 h, 6 h, and 24 h).

[2] = Systemic toxicity after repeated oral administration; format: in vivo, BALB/c mice; details: 10 mg/kg FDX or equivalent, three-day intervals, n = 5
Experimental: To evaluate the therapeutic efficacy of FDX@mEVs, all controls and FDX@mEVs (PBS, mEVs, FDX, and FDX@mEVs; an equivalent dose of 10 mg/kg of FDX dispersed in 100 μL of PBS) were orally administered to CT26 tumor-bearing mice when the average tumor size reached approximately 50 - 70 mm^3. The CT26 tumor-bearing mice were modeled in the same manner as the previous method by inoculating 1.5 x 10^6 cells into the left flank of 7-week-old BALB/c mice (BALB/cAnNCrlOri). The six-repeated administration was conducted every three days, and tumor sizes and body weights were measured every two days. All subjects were sacrificed three days after the last administration, and blood, major organs, and tumor tissues were collected for the following analysis.
Systemic toxicity of FDX@mEVs was assessed by analyzing hematological parameters and histological assay of major organs. To assess liver damage by FDX@mEVs, AST, and ALT levels were analyzed. In addition, BUN and creatinine levels were also evaluated to confirm renal toxicity. Subsequently, all major organs were used for H&E staining to verify the histological damage of FDX@mEVs. H&E staining was performed according to the same protocol used in our previous study. Briefly, all sections were incubated in Hematoxylin solution for 5 min at RT. All incubated tissue sections were washed using tap water for 3 min. […]

Structure (SMILES): COc1cccc2c1C(=O)c1c(O)c3c(c(O)c1C2=O)C[C@@](O)(C(=O)CO)C[C@@H]3O[C@H]1C[C@H](NC(=O)CNC(=O)[C@H](CCCNC(=N)N)NC(=O)[C@H](CCCNC(=N)N)NC(=O)[C@H](Cc2ccccc2)NC(C)=O)[C@H](O)[C@H](C)O1 [FDX, FRRG-DOX] (Ac-FRRG-{Doxorubicin(3'-N)})
- in vivo clearance time after oral administration [1]: ≤ 3 h
- body weight during repeated oral administration compared to PBS group [2]: no significant changes

From publication PMC11413795, “Milk-derived extracellular vesicles enable gut-to-tumor oral delivery of tumor-activated doxorubicin prodrugs” (Theranostics, 2024)
